Data on nine molecules can be found in article PMC3145919 (Neuron, 2011).

Where two headings read alike, the source gives them in different places.

Series [1] has as its target GluR6Δ2 F58A mutant ATD (rat) (UniProt P42260). In words: AUC.
Series [2] has as its target GluR6Δ2 ATD (G215N/M217T glycan wedge mutant) (rat) (UniProt P42260). Nature of the series: AUC.
For series [3], the target named is KA2 amino terminal domain (ATD), wild type (rat) (UniProt Q63273). In words: AUC.
Series [4] shares this target. In words: AUC. This is another data set of the same source.
The series “SEC-MALS” concerns the molecule itself. In words: SEC-MALS.
Series [5] concerns the molecule itself. Nature of the series: AUC.
Series [6] deals with the molecule itself. In words: AUC. This is another data set of the same source.
Series [7] concerns the molecule itself. Nature of the series: AUC. This is another data set of the same source.

“KA2 Y57A/S165G/T168A mutant ATD (domain or fragment)” yielded a Kd in series [1] of 13 µM.
In the case of “KA2 Y57A mutant ATD (domain or fragment)”, the figures for the Kd in series [2] and in series [1] were 0.14 µM and 1.63 µM, respectively.
Turning to “KA2 Y57A/E156A mutant ATD (domain or fragment)”, the Kd in series [1] came to 2 µM.
As to “KA2 Y57A/L163A mutant ATD (domain or fragment)”, the equilibrium dissociation constant (Kd) in series [1] stood at 6.7 µM. This Kd is about 3.4-fold higher than that of the molecule before.
In the case of “KA2 amino terminal domain (ATD), wild type (from UniProt Q63273 20-406) (domain or fragment)”, the Kd in series [3] was 410 µM; in series [4], 350 µM.

B1: GluR6 amino terminal domain (ATD), wild type (domain or fragment, rat)
chain: TTHVLRFGGIFEYVESGPMGAEELAFRFAVNTINRNRTLLPNTTLTYDTQKINLYDSFEASKKACDQLSLGVAAIFGPSHSSSANAVQSICNALGVPHIQTRWKHQVSDNKDSFYVSLYPDFSSLSRAILDLVQFFKWKTVTVVYDDSTGLIRLQELIKAPSRYNLRLKIRQLPADTKDAKPLLKEMKRGKEFHVIFDCSHEMAAGILKQALAMGMMTEYYHYIFTTLDLFALDVEPYRYSGVNMTGFRILNTENTQVSSIIEKWSMERLQAPPKPDSGLLDGFMTTDAALMYDAVHVVSVAVQQFPQMTVSSLQCNRHKPWRFGTRFMSLIKEAHWEGLTGRITFNKTNGLRTDFDLDVISLKEEGLEKIGTWDPASGLNMTESQKGK
modifications: N-linked glycans
As to B1, the binding result in “SEC-MALS” is given as “binds”.

B2: GluR6Δ1 ATD (A213N/G215S glycan wedge mutant) (domain or fragment, rat)
chain: TTHVLRFGGIFEYVESGPMGAEELAFRFAVNTINRNRTLLPNTTLTYDTQKINLYDSFEASKKACDQLSLGVAAIFGPSHSSSANAVQSICNALGVPHIQTRWKHQVSDNKDSFYVSLYPDFSSLSRAILDLVQFFKWKTVTVVYDDSTGLIRLQELIKAPSRYNLRLKIRQLPADTKDAKPLLKEMKRGKEFHVIFDCSHEMAAGILKQALNMSMMTEYYHYIFTTLDLFALDVEPYRYSGVNMTGFRILNTENTQVSSIIEKWSMERLQAPPKPDSGLLDGFMTTDAALMYDAVHVVSVAVQQFPQMTVSSLQCNRHKPWRFGTRFMSLIKEAHWEGLTGRITFNKTNGLRTDFDLDVISLKEEGLEKIGTWDPASGLNMTESQKGK
modifications: N-linked glycans, one introduced by the mutations (glycan wedge)
Consider B2, for which the “stoichiometry N” value in “SEC-MALS” worked out at 2.

B3: wt GluR6/KA2 ATD heterodimer (complex, rat)
chain 1: TTHVLRFGGIFEYVESGPMGAEELAFRFAVNTINRNRTLLPNTTLTYDTQKINLYDSFEASKKACDQLSLGVAAIFGPSHSSSANAVQSICNALGVPHIQTRWKHQVSDNKDSFYVSLYPDFSSLSRAILDLVQFFKWKTVTVVYDDSTGLIRLQELIKAPSRYNLRLKIRQLPADTKDAKPLLKEMKRGKEFHVIFDCSHEMAAGILKQALAMGMMTEYYHYIFTTLDLFALDVEPYRYSGVNMTGFRILNTENTQVSSIIEKWSMERLQAPPKPDSGLLDGFMTTDAALMYDAVHVVSVAVQQFPQMTVSSLQCNRHKPWRFGTRFMSLIKEAHWEGLTGRITFNKTNGLRTDFDLDVISLKEEGLEKIGTWDPASGLNMTESQKGK
chain 2: VLSSLRMAAILDDQTVCGRGERLALALAREQINGIIEVPAKARVEVDIFELQRDSQYETTDTMCQILPKGVVSVLGPSSSPASASTVSHICGEKEIPHIKVGPEETPRLQYLRFASVSLYPSNEDVSLAVSRILKSFNYPSASLICAKAECLLRLEELVRGFLISKETLSVRMLDDSRDPTPLLKEIRDDKVSTIIIDANASISHLVLRKASELGMTSAFYKYILTTMDFPILHLDGIVEDSSNILGFSMFNTSHPFYPEFVRSLNMSWRENCEASTYPGPALSAALMFDAVHVVVSAVRELNRSQEIGVKPLACTSANIWPHGTSLMNYLRMVEYDGLTGRVEFNSKGQRTNYTLRILEKSRQGHREIGVWYSNRTLAMNATTLDI
modifications: N-linked glycans | N-linked glycans
Regarding B3, the Kd in the series “AUC [5]” amounted to 6.2 µM. That is a single-digit micromolar value.

B4: GluR6Δ2 ATD (G215N/M217T glycan wedge mutant) (domain or fragment, rat)
chain: TTHVLRFGGIFEYVESGPMGAEELAFRFAVNTINRNRTLLPNTTLTYDTQKINLYDSFEASKKACDQLSLGVAAIFGPSHSSSANAVQSICNALGVPHIQTRWKHQVSDNKDSFYVSLYPDFSSLSRAILDLVQFFKWKTVTVVYDDSTGLIRLQELIKAPSRYNLRLKIRQLPADTKDAKPLLKEMKRGKEFHVIFDCSHEMAAGILKQALAMNMTTEYYHYIFTTLDLFALDVEPYRYSGVNMTGFRILNTENTQVSSIIEKWSMERLQAPPKPDSGLLDGFMTTDAALMYDAVHVVSVAVQQFPQMTVSSLQCNRHKPWRFGTRFMSLIKEAHWEGLTGRITFNKTNGLRTDFDLDVISLKEEGLEKIGTWDPASGLNMTESQKGK
modifications: N-linked glycans, one introduced by the mutations (glycan wedge)
In the case of B4, in the series “SEC-MALS”, the “stoichiometry N” value was 2. For the same molecule, the Kd was 0.35 µM in “AUC [6]” and 0.25 µM in the series “AUC [7]”.
